Experimental findings from the nanobody polyreactivity screen of Harvey et al. (2022) are described below.

This data set can be described thus: yeast display, Sf9 membrane polyspecificity reagent, FACS + sequencing; frameworks hold sequencing errors. Summed up: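 A synthetic nanobody library was expressed on Saccharomyces cerevisiae BJ5465 by galactose induction for 36–48 hours. The library was stained for 1 hour at 4 °C with 10% biotinylated, detergent-solubilized Sf9 membrane reagent and enriched with streptavidin microbeads before FACS. Low and high (top ~1%) gates were set on anti-HA fluorescence for expression and streptavidin fluorescence for reagent binding, and each polyreactivity label reflects the gate of origin.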
On to “QVQLVESGGGLVQAGGSLRLSCAASGRIFYLYAMGWYRQAPGKDRELVAAITWSGGSTTYADSVKGRFTISRDTAKNTVYLQMNSLKPEDTAVYYSNADGWIFPSFSPMDYWGQGTQVTVSS”, for which the “polyreactivity (PSR sort gate)” value is “low polyreactivity”.
For the sequence “QVQLVESGGGLVQAGGSLRLSCAASGRIFYLYAMGWYRQAPGTEREFVASITVSGSSTYYADSVKGRFTISRDNAKNTVYLQMNSLKPEDTAVYYCNTDAVRSYVWWGTSLYDYWGQGTQVTVSS”, the “polyreactivity (PSR sort gate)” value is reported as “low polyreactivity”.
To “QVQLVESGGGLVQAGGSLRLSCAASGRIFYLYGMGWYRQAPGKERELVAAIDWSDGSTYYADSVKGRFTISRDNAKNTVYLQMNSLKPEDTAVYYCAADGWAAWLYDYWGQGTQVTVSS” belongs “low polyreactivity”; to “QVQLVESGGGLVQAGGSLRLSCAASGRIFYLYTMGWYRQAPGKEREFSTYYADSVKGRFTISRDNAKNTVYLQMNCLKPEDTAVYYCAAADHPPVWYGYWGQGTQVTVSS”, “low polyreactivity”.
As for “QVQLVESGGGLVQAGGSLRLSCAASGRIFYLYTMGWYRQAPGKERELVAAITRAGRTYYADSVKGRFTISRDNAKNTVYLQMNSLKPEDTAVYYCAAAFLSRVQGYDSWGQGTQVTVSS”, the “polyreactivity (PSR sort gate)” value was “high polyreactivity”.
For “QVQLVESGGGLVQAGGSLRLSCAASGRIFYNNVMGWYRQAPGKERELVAAISGNGGSTYYADSVKGRFTISRDNAKNTVYLQMNSLKPEDTAVYFCAADDLYTDYETWWRRGDYWGQGTQVTVSS”, the “polyreactivity (PSR sort gate)” value is on record as “low polyreactivity”.
“QVQLVESGGGLVQAGGSLRLSCAASGRIFYNYAMGWYRQAPGKERELVAAITGGASTYADSVKGRFTISRDNAKNTVYLQMNSLKPEDTAVYYCAVDYYTYSLASGRTRMDYWGQGTQVTVSS”: the “polyreactivity (PSR sort gate)” value is reported as “high polyreactivity”.
Consider “QVQLVESGGGLVQAGGSLRLSCAASGRIFYNYVMGWYRQAPGKERELVAAISSSGGSTYYADSVKGRFTISRDNAKNTVYLQMNSLKPEDTAVYYCGTTRRVPGEYWGQGTQVTVSS”, for which the “polyreactivity (PSR sort gate)” value was “high polyreactivity”.
Consider “QVQLVESGGGLVQAGGSLRLSCAASGRIFYPNAMGWYRQARGKERELVAGISSGGGRTYYADSVKGRFTISRDNAKNTVYLQMNSLKPEDTAVYYCATVGRGYDERHNYWGQGTQVTVSS”, for which the “polyreactivity (PSR sort gate)” value is on record as “high polyreactivity”.
Take “QVQLVESGGGLVQAGGSLRLSCAASGRIFYPNVMGWYRQAPGKERELVAAITWSSGSTYYADSVKGRFTISRDNAKNTVYLQMNSLKPEDTAVYYCAAGLRWHRKFYYWGQGTQVTVSS”: the “polyreactivity (PSR sort gate)” value is listed as “high polyreactivity”.
For the sequence “QVQLVESGGGLVQAGGSLRLSCAASGRIFYPYAMGWYREAPGKERELVAAITVRGGRTYYADSVKGRFTFSRDNAKNTVYLQMNSLKPEDTAVYYCAARRWGAYRHGYWGQGTQVTVSS”, the “polyreactivity (PSR sort gate)” value is recorded as “high polyreactivity”.
To “QVQLVESGGGLVQAGGSLRLSCAASGRIFYPYAMGWYRQAPGKERELVAAIDKGGGSTYYADSVKGRFTISRDNAKNTVYLQMNSLKPEVTAVYYCAAGWEYPYDYWGQGTQVTVSS” belongs “low polyreactivity”; to “QVQLVESGGGLVQAGGSLRLSCAASGRIFYPYAMGWYRQAPGKERELVAAISRSGGSTYYADSVKGRFTISRDNAKNTVYLQMNSLKPEDTAVYYCAARRGFGPDGEMDYWGQGTQVTVSS”, “low polyreactivity”.
Consider “QVQLVESGGGLVQAGGSLRLSCAASGRIFYPYAMGWYRQAPGKERELVAAISRSGGSTYYADSVKGRFTISRDNAKNTVYLQMNSLKPEDTAVYYCAKVTSSGDAVLTQIPYGYDYWGQGTQVTVSS”, for which the “polyreactivity (PSR sort gate)” value is “low polyreactivity”.
Under “QVQLVESGGGLVQAGGSLRLSCAASGRIFYPYAMGWYRQAPGKERELVAAISSSGGSTYYADSVKGRFTISRDNAKNTVYLQMNSLKPEDTAVYYCNKYSYTYQNPYDSWGQGTQVTVSS” stands “high polyreactivity”; under “QVQLVESGGGLVQAGGSLRLSCAASGRIFYPYAMGWYRQAPGKERELVAAITGRGGSTYYADSVKGRFTISRDNAKNTVYLQMNSLKPEDTAVYYCATVQSGRVRTYDYWGQGTQVTVSS”, “high polyreactivity”.
As for “QVQLVESGGGLVQAGGSLRLSCAASGRIFYPYAMGWYRQAPGKERELVAAITWSGGSTYYADSVKGRFTISRDNAKNTVYLQMNSLKPEDTAVYYCAKDHSYGAYYYWGQGTQVTVSS”, the “polyreactivity (PSR sort gate)” value is recorded as “high polyreactivity”.
Consider “QVQLVESGGGLVQAGGSLRLSCAASGRIFYPYVMGWYRQAPGKERELVAAISDTTGSTYYADSVKGRFTISRDNAKNTVYLQMNSLKPEDTEVFYCAAGWFYATYWRFYYWGQGTQVTVSS”, for which the “polyreactivity (PSR sort gate)” value is given as “low polyreactivity”.
Take “QVQLVESGGGLVQAGGSLRLSCAASGRIFYQNAMGWYRQAPGKARELVADSASGGSTYYADSVKGRFTISRDNAKNTVYLQMNSLKPEDPAVYYCATAVLYGDGWYYYWGQGTQVTVSS”: the “polyreactivity (PSR sort gate)” value is recorded as “low polyreactivity”.
“QVQLVESGGGLVQAGGSLRLSCAASGRIFYQNPMGWYRPAPGKERELVADISSGGSTYYADSVKGRFTISRDNAKNTVYLQMNSLKPEDTAGYYCNTPSGPGTVGSYRRIWYGYWGQGSQVTVSS”: the “polyreactivity (PSR sort gate)” value is “low polyreactivity”.
For the sequence “QVQLVESGGGLVQAGGSLRLSCAASGRIFYQYAMGWYRPAPGKERELVAAIRWSGGSTYYADSVKGRFTISRDNAKNTVYLQMNSLKQEDTAVYYCNARYPYWGAYYDYDYWGQGTQVTVSS”, the “polyreactivity (PSR sort gate)” value is recorded as “low polyreactivity”.
On to “QVQLVESGGGLVQAGGSLRLSCAASGRIFYRNAMGWYRKAPGKEREWVAAISSSAGSTFYADSVKGRFTISRDNSKNTVYLQMNSLKPEDTAVYYCAAGSGTFVTRYRYGYWGQGTQVTVSS”, for which the “polyreactivity (PSR sort gate)” value was “high polyreactivity”.
On to “QVQLVESGGGLVQAGGSLRLSCAASGRIFYRNAMGWYRQAPGKERELVAAISRSGGTTYYADSVKGRFTISRDNAKNTVYLQMNSLKPEDTAVYYCAALVPYSYPGYYYWGQGTQVTVSS”, for which the “polyreactivity (PSR sort gate)” value is reported as “high polyreactivity”.
As for “QVQLVESGGGLVQAGGSLRLSCAASGRIFYRNAMGWYRQAPGKERELVAAISYSGGRTYYADSVKGRFTISRDNAKNTVYLQMNSLKPEDTAVYYCAARYAWGYVDPGDYWGQGTQVTVSS”, the “polyreactivity (PSR sort gate)” value was “high polyreactivity”.
On to “QVQLVESGGGLVQAGGSLRLSCAASGRIFYRNAMGWYRQAPGKERELVAAITGSGGSTYYADSVKGRFTISRDNAKNTVYLQMNSLKPEDTAVYYCNKPYFLYRPLGTGMEYWGQGTHVTVSS”, for which the “polyreactivity (PSR sort gate)” value was “high polyreactivity”.
Turning to “QVQLVESGGGLVQAGGSLRLSCAASGRIFYRNAMGWYRQAPVKERELVASITWRGGRTYYADSVKGRFTISRDNAKNTVYLQMNSLKQEDTAVYYCNAAPRTYNAWDFDYWGQGTQVTVSS”, the “polyreactivity (PSR sort gate)” value is on record as “high polyreactivity”.
In the case of “QVQLVESGGGLVQAGGSLRLSCAASGRIFYRYAMGWYRQAPGKERELVAAINDGGSTYYADSVKGRFTISRDNAKNTVYLQMNSLKPEDTAVYYCNVVNEHQSDFVVPFDYNHWGQGTQVSVSS”, the “polyreactivity (PSR sort gate)” value is “low polyreactivity”.
To “QVQLVESGGGLVQAGGSLRLSCAASGRIFYRYAMGWYRQAPGKERELVAAISGSVGSTYADSVKGRFTISRDNAKNTVYLQMNSLKPEDTAVYYCARETYRRYGAYDYWGQGTQVTVSS” belongs “low polyreactivity”; to “QVQLVESGGGLVQAGGSLRLSCAASGRIFYRYAMGWYRQAPGKERELVATISRSGGSTNYADSVKGRFTISRDNAKNTVYLQMNSLKPEDTAVYYCNALYLSTRSGDYWGQGTQVTVSS”, “high polyreactivity”.
In the case of “QVQLVESGGGLVQAGGSLRLSCAASGRIFYRYGMGRYRPAHGKVRELVASITRGGSTYYADSVKWRFTISRDNAKNTVYLQMNSLKPEDTAVYDSNRDIGGTSVLDDYWGQGTQVTVSS”, the “polyreactivity (PSR sort gate)” value is reported as “low polyreactivity”.
